Experimental data as given in US20200040358A1 (published 2020).

T1: NY-ESO-1 peptide on HLA-B*07:02 (human)
T1 peptide: SLLMWITQC

T2: NY-ESO-1 peptide on HLA-A*02:01 (human)
T2 peptide: SLLMWITQC

T3: NY-ESO-1 peptide on HLA-A*02:01 (human (alpha3 domain mouse))
T3 peptide: SLLMWITQC


Biological target: T1, NY-ESO-1 peptide on HLA-B*07:02
Assay: cytokine release

| binding result | Binder |
| --- | --- |
| no recognition | TCR18168 (TCR, V domains shown) Valpha: QSVAQPEDQVNVAEGNPLTVKCTYSVSGNPYLFWYVQYPNRGLQFLLKYITGDNLVKGSYGFEAEFNKSQTSFHLKKPSALVSDSALYFCAVRELYSGAGSYQLTFGKGTKLSVIP Vbeta: QKPSRDICQRGTSLTIQCQVDSQVTMMFWYRQQPGQSLTLIATANQGSEATYESGFVIDKFPISRPNLTFSTLTVSNMSPEDSSIYLCSVGGAGVTDTQYFGPGTRLTVL |

Biological target: T2, NY-ESO-1 peptide on HLA-A*02:01
Assay: multimer staining

| binding result | Binder |
| --- | --- |
| recognises | TCR18168 (TCR, V domains shown) Valpha: QSVAQPEDQVNVAEGNPLTVKCTYSVSGNPYLFWYVQYPNRGLQFLLKYITGDNLVKGSYGFEAEFNKSQTSFHLKKPSALVSDSALYFCAVRELYSGAGSYQLTFGKGTKLSVIP Vbeta: QKPSRDICQRGTSLTIQCQVDSQVTMMFWYRQQPGQSLTLIATANQGSEATYESGFVIDKFPISRPNLTFSTLTVSNMSPEDSSIYLCSVGGAGVTDTQYFGPGTRLTVL |
| recognises | TCR0068 (TCR, V domains shown) Valpha: QSVAQPEDQVNVAEGNPLTVKCTYSVSGNPYLFWYVQYPNRGLQFLLKYITGDNLVKGSYGFEAEFNKSQTSFHLKKPSALVSDSALYFCAVRELYSPRLMWQLTFGKGTKLSVIP Vbeta: QKPSRDICQRGTSLTIQCQVDSQVTMMFWYRQQPGQSLTLIATANQGSEATYESGFVIDKFPISRPNLTFSTLTVSNMSPEDSSIYLCSVGGAGVTDTQYFGPGTRLTVL |
| recognises | TCR0036 (TCR, V domains shown) Valpha: QSVAQPEDQVNVAEGNPLTVKCTYSVSGNPYLFWYVQYPNRGLQFLLKYITGDNLVKGSYGFEAEFNKSQTSFHLKKPSALVSDSALYFCAVRDLTTGAGSYQLTFGKGTKLSVIP Vbeta: QKPSRDICQRGTSLTIQCQVDSQVTMMFWYRQQPGQSLTLIATANQGSEATYESGFVIDKFPISRPNLTFSTLTVSNMSPEDSSIYLCSVGGAGVTDTQYFGPGTRLTVL |
| recognises | TCR0032 (TCR, V domains shown) Valpha: QSVAQPEDQVNVAEGNPLTVKCTYSVSGNPYLFWYVQYPNRGLQFLLKYITGDNLVKGSYGFEAEFNKSQTSFHLKKPSALVSDSALYFCAVRDLFCGAGSYQLTFGKGTKLSVIP Vbeta: QKPSRDICQRGTSLTIQCQVDSQVTMMFWYRQQPGQSLTLIATANQGSEATYESGFVIDKFPISRPNLTFSTLTVSNMSPEDSSIYLCSVGGAGVTDTQYFGPGTRLTVL |
| recognises | TCR0012 (TCR, V domains shown) Valpha: QSVAQPEDQVNVAEGNPLTVKCTYSVSGNPYLFWYVQYPNRGLQFLLKYITGDNLVKGSYGFEAEFNKSQTSFHLKKPSALVSDSALYFCAVRGLLNGAGSYQLTFGKGTKLSVIP Vbeta: QKPSRDICQRGTSLTIQCQVDSQVTMMFWYRQQPGQSLTLIATANQGSEATYESGFVIDKFPISRPNLTFSTLTVSNMSPEDSSIYLCSVGGAGVTDTQYFGPGTRLTVL |
| recognises | TCR0062 (TCR, V domains shown) Valpha: QSVAQPEDQVNVAEGNPLTVKCTYSVSGNPYLFWYVQYPNRGLQFLLKYITGDNLVKGSYGFEAEFNKSQTSFHLKKPSALVSDSALYFCAVRELYSTTFGWQLTFGKGTKLSVIP Vbeta: QKPSRDICQRGTSLTIQCQVDSQVTMMFWYRQQPGQSLTLIATANQGSEATYESGFVIDKFPISRPNLTFSTLTVSNMSPEDSSIYLCSVGGAGVTDTQYFGPGTRLTVL |
| recognises | TCR0050 (TCR, V domains shown) Valpha: QSVAQPEDQVNVAEGNPLTVKCTYSVSGNPYLFWYVQYPNRGLQFLLKYITGDNLVKGSYGFEAEFNKSQTSFHLKKPSALVSDSALYFCAVRELYSVAVRYQLTFGKGTKLSVIP Vbeta: QKPSRDICQRGTSLTIQCQVDSQVTMMFWYRQQPGQSLTLIATANQGSEATYESGFVIDKFPISRPNLTFSTLTVSNMSPEDSSIYLCSVGGAGVTDTQYFGPGTRLTVL |
| recognises | TCR0018 (TCR, V domains shown) Valpha: QSVAQPEDQVNVAEGNPLTVKCTYSVSGNPYLFWYVQYPNRGLQFLLKYITGDNLVKGSYGFEAEFNKSQTSFHLKKPSALVSDSALYFCAVRDLSDGAGSYQLTFGKGTKLSVIP Vbeta: QKPSRDICQRGTSLTIQCQVDSQVTMMFWYRQQPGQSLTLIATANQGSEATYESGFVIDKFPISRPNLTFSTLTVSNMSPEDSSIYLCSVGGAGVTDTQYFGPGTRLTVL |
| recognises | TCR0010 (TCR, V domains shown) Valpha: QSVAQPEDQVNVAEGNPLTVKCTYSVSGNPYLFWYVQYPNRGLQFLLKYITGDNLVKGSYGFEAEFNKSQTSFHLKKPSALVSDSALYFCAVRDSFEGAGSYQLTFGKGTKLSVIP Vbeta: QKPSRDICQRGTSLTIQCQVDSQVTMMFWYRQQPGQSLTLIATANQGSEATYESGFVIDKFPISRPNLTFSTLTVSNMSPEDSSIYLCSVGGAGVTDTQYFGPGTRLTVL |
| recognises | TCR0014 (TCR, V domains shown) Valpha: QSVAQPEDQVNVAEGNPLTVKCTYSVSGNPYLFWYVQYPNRGLQFLLKYITGDNLVKGSYGFEAEFNKSQTSFHLKKPSALVSDSALYFCAVRDLFTGAGSYQLTFGKGTKLSVIP Vbeta: QKPSRDICQRGTSLTIQCQVDSQVTMMFWYRQQPGQSLTLIATANQGSEATYESGFVIDKFPISRPNLTFSTLTVSNMSPEDSSIYLCSVGGAGVTDTQYFGPGTRLTVL |
| recognises | TCR0022 (TCR, V domains shown) Valpha: QSVAQPEDQVNVAEGNPLTVKCTYSVSGNPYLFWYVQYPNRGLQFLLKYITGDNLVKGSYGFEAEFNKSQTSFHLKKPSALVSDSALYFCAVRDDLVGAGSYQLTFGKGTKLSVIP Vbeta: QKPSRDICQRGTSLTIQCQVDSQVTMMFWYRQQPGQSLTLIATANQGSEATYESGFVIDKFPISRPNLTFSTLTVSNMSPEDSSIYLCSVGGAGVTDTQYFGPGTRLTVL |
| recognises | TCR0066 (TCR, V domains shown) Valpha: QSVAQPEDQVNVAEGNPLTVKCTYSVSGNPYLFWYVQYPNRGLQFLLKYITGDNLVKGSYGFEAEFNKSQTSFHLKKPSALVSDSALYFCAVRELYSALVTYQLTFGKGTKLSVIP Vbeta: QKPSRDICQRGTSLTIQCQVDSQVTMMFWYRQQPGQSLTLIATANQGSEATYESGFVIDKFPISRPNLTFSTLTVSNMSPEDSSIYLCSVGGAGVTDTQYFGPGTRLTVL |
| recognises | TCR0024 (TCR, V domains shown) Valpha: QSVAQPEDQVNVAEGNPLTVKCTYSVSGNPYLFWYVQYPNRGLQFLLKYITGDNLVKGSYGFEAEFNKSQTSFHLKKPSALVSDSALYFCAVRDQALGAGSYQLTFGKGTKLSVIP Vbeta: QKPSRDICQRGTSLTIQCQVDSQVTMMFWYRQQPGQSLTLIATANQGSEATYESGFVIDKFPISRPNLTFSTLTVSNMSPEDSSIYLCSVGGAGVTDTQYFGPGTRLTVL |
| recognises | TCR0060 (TCR, V domains shown) Valpha: QSVAQPEDQVNVAEGNPLTVKCTYSVSGNPYLFWYVQYPNRGLQFLLKYITGDNLVKGSYGFEAEFNKSQTSFHLKKPSALVSDSALYFCAVRELYSRGVKWQLTFGKGTKLSVIP Vbeta: QKPSRDICQRGTSLTIQCQVDSQVTMMFWYRQQPGQSLTLIATANQGSEATYESGFVIDKFPISRPNLTFSTLTVSNMSPEDSSIYLCSVGGAGVTDTQYFGPGTRLTVL |
| recognises | TCR0070 (TCR, V domains shown) Valpha: QSVAQPEDQVNVAEGNPLTVKCTYSVSGNPYLFWYVQYPNRGLQFLLKYITGDNLVKGSYGFEAEFNKSQTSFHLKKPSALVSDSALYFCAVRELYSATVDYQLTFGKGTKLSVIP Vbeta: QKPSRDICQRGTSLTIQCQVDSQVTMMFWYRQQPGQSLTLIATANQGSEATYESGFVIDKFPISRPNLTFSTLTVSNMSPEDSSIYLCSVGGAGVTDTQYFGPGTRLTVL |
| recognises | TCR0020 (TCR, V domains shown) Valpha: QSVAQPEDQVNVAEGNPLTVKCTYSVSGNPYLFWYVQYPNRGLQFLLKYITGDNLVKGSYGFEAEFNKSQTSFHLKKPSALVSDSALYFCAVRSSYEGAGRYQLTFGKGTKLSVIP Vbeta: QKPSRDICQRGTSLTIQCQVDSQVTMMFWYRQQPGQSLTLIATANQGSEATYESGFVIDKFPISRPNLTFSTLTVSNMSPEDSSIYLCSVGGAGVTDTQYFGPGTRLTVL |
| recognises | TCR0028 (TCR, V domains shown) Valpha: QSVAQPEDQVNVAEGNPLTVKCTYSVSGNPYLFWYVQYPNRGLQFLLKYITGDNLVKGSYGFEAEFNKSQTSFHLKKPSALVSDSALYFCAVRDMANGAGSYQLTFGKGTKLSVIP Vbeta: QKPSRDICQRGTSLTIQCQVDSQVTMMFWYRQQPGQSLTLIATANQGSEATYESGFVIDKFPISRPNLTFSTLTVSNMSPEDSSIYLCSVGGAGVTDTQYFGPGTRLTVL |
| recognises | TCR0030 (TCR, V domains shown) Valpha: QSVAQPEDQVNVAEGNPLTVKCTYSVSGNPYLFWYVQYPNRGLQFLLKYITGDNLVKGSYGFEAEFNKSQTSFHLKKPSALVSDSALYFCAVRDSKAGAGSYQLTFGKGTKLSVIP Vbeta: QKPSRDICQRGTSLTIQCQVDSQVTMMFWYRQQPGQSLTLIATANQGSEATYESGFVIDKFPISRPNLTFSTLTVSNMSPEDSSIYLCSVGGAGVTDTQYFGPGTRLTVL |

Biological target: T3, NY-ESO-1 peptide on HLA-A*02:01
Assay: activation reporter or marker

| binding result | Binder |
| --- | --- |
| recognises | TCR18168 (TCR, V domains shown) Valpha: QSVAQPEDQVNVAEGNPLTVKCTYSVSGNPYLFWYVQYPNRGLQFLLKYITGDNLVKGSYGFEAEFNKSQTSFHLKKPSALVSDSALYFCAVRELYSGAGSYQLTFGKGTKLSVIP Vbeta: QKPSRDICQRGTSLTIQCQVDSQVTMMFWYRQQPGQSLTLIATANQGSEATYESGFVIDKFPISRPNLTFSTLTVSNMSPEDSSIYLCSVGGAGVTDTQYFGPGTRLTVL |
